Here are results for three molecules from PMC3035937 (Journal of molecular biology, 2010).

The chains are these.
B3: purified SpHst4 (SpHst4-His) (natural protein, S. pombe, UniProt Q9UR39 1-415, looked up)
chain: MKVEEHVPLIQESRKRKCQSSENASKRQQLLSKLPLRLHTGNENVDLSPLVSAIRKAKRIVVVTGAGISCDAGIPDFRSSEGLFSSLRAEYKLNCSGKELFDGSVYRDLKSVNIFHAMIRKLHMLSNNARPTDFHLFLSQLAQESKLLRLYTQNIDFLETRLEGLQTCIPLPQSAPWPTTIPLHGTLEVVSCTRCSFLKKFNPDIFDRNGVTVCPDCKTENEVRRIAGKRSVIEGCLRPRIVLYNEIHPDSESIGSVCSQDLKSRPDCLIVAGTSCKIPGVKRIIKEMSNCVHKQKGNVIWLNYDEPTKDFLNLCDLVVQGDLQIAIRRLKPLLDAPSWKLKSHSAKRTSKQKSSEQTKITSSTKITKAIGLNTKSNDSSKKDNTSFQLHQVLNSIEIPKVEIKQEVEYATPSPL

Assay [1] addresses B3. Briefly: pull-down.
Assay [2] concerns the target T1, GST-SpRad9 (S. pombe, UniProt P26306 1-426).
T1 sequence (looked up): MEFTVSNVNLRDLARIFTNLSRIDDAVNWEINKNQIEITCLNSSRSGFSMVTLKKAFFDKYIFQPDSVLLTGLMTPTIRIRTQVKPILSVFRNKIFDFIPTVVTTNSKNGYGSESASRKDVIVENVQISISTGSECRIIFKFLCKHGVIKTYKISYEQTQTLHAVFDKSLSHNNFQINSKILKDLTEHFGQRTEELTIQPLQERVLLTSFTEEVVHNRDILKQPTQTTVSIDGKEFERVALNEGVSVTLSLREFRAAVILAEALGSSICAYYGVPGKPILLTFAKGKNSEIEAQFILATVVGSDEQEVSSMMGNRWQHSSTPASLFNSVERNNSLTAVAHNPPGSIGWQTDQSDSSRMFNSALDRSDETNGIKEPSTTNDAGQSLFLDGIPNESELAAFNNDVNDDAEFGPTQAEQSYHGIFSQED
Description: pull-down.

B1: GST-SpHus1 (natural protein, S. pombe, UniProt P78955 1-287, looked up)
chain: MRFKTRISNLYTLTRLVQALDKIGRFCWLRLMPETVNFVIVPDFRMTQVWSVLEVETIFEDYVVQSNADNVINLEVPIDNFYKALRSAANASDSTVRLSKKNNQPLLSLSTTWSGRAFGSNIVTHNIPVRVLSQSYVSVIKEPTAPEPDCHIFLPQLNFLRHVVDKYKSLSDRIIMSANMSGELQLSVNIPSARVSTKWKGLENPELDPSQVEDISRHPSQTRAPEEFVHMRLDSKDLVNMLKISSVAKRVIACFCEGHALVLYVYITDPEDEHTAVLTYYISTYVD
For B1, the binding result in assay [1] is listed as “binds”.

B2: GST-SpRad1 (natural protein, S. pombe, UniProt P22193 1-323, looked up)
chain: MFQAETVCLKQIQSTLRCIDFSKECTIEITSRGLRFAVEESQSLQAHAFLDKSLFQTFNFQGDSDGDTYMFQTMISPLLQSLSIYTDGKERISTSAWDQPTVNIMHKRGVICKVQYNGPGCPFIWEVEEMAGYATACELLTMECEDDVDINRLASTLCTKIIMKSNWLYDALVELDNNMGENLIIHTSSQKSTFLLRCVGALSTTEIEYPNEKSVLESFETDSENTYSYRFSLIRHALKALQVGSKVNLRIDENGTLSIQIMLVGQEGLCTFVDFCIVPLDLVSEDEEEDEEEEPAESNQSDNNVLRNDPNYRGDAETEDEDS
With B2, the binding result in assay [1] is “binds”. Regarding B3, the binding result in assay [2] was “binds”.
